Patent US20020012669A1

Molecular target: CRF2-4/zcytor11 heterodimeric receptor on BaF3/CRF2-4/zcytor11 cells (human) (UniProt Q8N6P7)
Assay: cell-based or functional assay

Sequence of CRF2-4/zcytor11 heterodimeric receptor on BaF3/CRF2-4/zcytor11 cells (human) (Q8N6P7 16-574 limits assumed, chain 1 of 2): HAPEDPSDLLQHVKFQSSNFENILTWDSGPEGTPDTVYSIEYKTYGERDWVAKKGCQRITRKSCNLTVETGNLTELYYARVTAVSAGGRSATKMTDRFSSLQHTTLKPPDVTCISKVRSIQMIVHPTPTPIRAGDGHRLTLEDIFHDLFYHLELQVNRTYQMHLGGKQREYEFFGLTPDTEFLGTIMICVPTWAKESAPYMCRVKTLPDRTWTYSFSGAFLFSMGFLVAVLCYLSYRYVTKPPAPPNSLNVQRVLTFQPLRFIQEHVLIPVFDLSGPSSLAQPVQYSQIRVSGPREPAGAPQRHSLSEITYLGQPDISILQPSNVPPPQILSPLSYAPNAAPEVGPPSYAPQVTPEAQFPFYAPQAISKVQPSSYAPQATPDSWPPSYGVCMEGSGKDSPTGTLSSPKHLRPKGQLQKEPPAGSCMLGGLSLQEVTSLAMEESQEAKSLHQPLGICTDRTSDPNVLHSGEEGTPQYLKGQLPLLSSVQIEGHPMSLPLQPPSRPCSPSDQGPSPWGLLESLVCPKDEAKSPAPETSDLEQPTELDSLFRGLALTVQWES
Sequence of CRF2-4/zcytor11 heterodimeric receptor on BaF3/CRF2-4/zcytor11 cells (human) (Q08334 20-325 limits assumed, chain 2 of 2, further chain): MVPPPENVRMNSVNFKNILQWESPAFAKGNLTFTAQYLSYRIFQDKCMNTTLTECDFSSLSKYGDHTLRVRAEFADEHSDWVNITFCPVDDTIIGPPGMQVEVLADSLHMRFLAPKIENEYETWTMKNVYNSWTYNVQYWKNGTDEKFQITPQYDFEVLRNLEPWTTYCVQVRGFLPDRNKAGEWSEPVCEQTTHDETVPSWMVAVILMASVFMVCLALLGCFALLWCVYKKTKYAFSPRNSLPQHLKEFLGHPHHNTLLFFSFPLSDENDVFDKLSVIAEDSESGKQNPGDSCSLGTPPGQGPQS

What does the source list for “IL-TIF-CEE (human IL-TIF with C-terminal Glu-Glu tag) (from UniProt Q9GZX6 34-179) (ligand)”?
Alamar Blue proliferation of BaF3/CRF2-4/zcytor11 cells, IL-TIF-CEE at 0.06 ng/ml (fold induction): 2; Alamar Blue proliferation of BaF3/CRF2-4/zcytor11 cells, IL-TIF-CEE at 50 ng/ml (fold over background): 15
